This passage reports binding result and Kd results from publication PMC6181577 (Molecular cell, 2018).

Data set [1] concerns the molecule itself. As to the kind of experiment: SEC.
Data set [2] concerns the target Ubiquitin (WT) (UniProt P0CG48 1-76). As to the kind of experiment: NMR titration.

B1: UBQLN2 379–624 (domain or fragment, human)
chain: NPQLIQNMLSAPYMRSMMQSLSQNPDLAAQMMLNSPLFTANPQLQEQMRPQLPAFLQQMQNPDTLSAMSNPRAMQALMQIQQGLQTLATEAPGLIPSFTPGVGVGVLGTAIGPVGPVTPIGPIGPIVPFTPIGPIGPIGPTGPAAPPGSTGSGGPTGPTVSSAAPSETTSPTSESGPNQQFIQQMVQALAGANAPQLPNPEVRFQQQLEQLNAMGFLNREANLQALIATGGDINAAIERLLGSQPSW
Consider B1, for which the binding result in data set [1] is “binds”.

B2: UBQLN2 450–624 (domain or fragment, human)
chain: RAMQALMQIQQGLQTLATEAPGLIPSFTPGVGVGVLGTAIGPVGPVTPIGPIGPIVPFTPIGPIGPIGPTGPAAPPGSTGSGGPTGPTVSSAAPSETTSPTSESGPNQQFIQQMVQALAGANAPQLPNPEVRFQQQLEQLNAMGFLNREANLQALIATGGDINAAIERLLGSQPSW
B2: the binding result in data set [1] is “binds”. Moreover, the Kd (in general, the free concentration of one partner at which half of the binding sites on the other are occupied at equilibrium, for simple one-to-one binding) in data set [2] was determined as 3 µM.
